Consider one molecule from PMC9215706 (Cell reports, 2022).

For the assay, the target named is T1, Recombinant Ubiquitin activating enzyme E1 (human) - UBA1 (human, UniProt P22314 1-1058).
T1 sequence: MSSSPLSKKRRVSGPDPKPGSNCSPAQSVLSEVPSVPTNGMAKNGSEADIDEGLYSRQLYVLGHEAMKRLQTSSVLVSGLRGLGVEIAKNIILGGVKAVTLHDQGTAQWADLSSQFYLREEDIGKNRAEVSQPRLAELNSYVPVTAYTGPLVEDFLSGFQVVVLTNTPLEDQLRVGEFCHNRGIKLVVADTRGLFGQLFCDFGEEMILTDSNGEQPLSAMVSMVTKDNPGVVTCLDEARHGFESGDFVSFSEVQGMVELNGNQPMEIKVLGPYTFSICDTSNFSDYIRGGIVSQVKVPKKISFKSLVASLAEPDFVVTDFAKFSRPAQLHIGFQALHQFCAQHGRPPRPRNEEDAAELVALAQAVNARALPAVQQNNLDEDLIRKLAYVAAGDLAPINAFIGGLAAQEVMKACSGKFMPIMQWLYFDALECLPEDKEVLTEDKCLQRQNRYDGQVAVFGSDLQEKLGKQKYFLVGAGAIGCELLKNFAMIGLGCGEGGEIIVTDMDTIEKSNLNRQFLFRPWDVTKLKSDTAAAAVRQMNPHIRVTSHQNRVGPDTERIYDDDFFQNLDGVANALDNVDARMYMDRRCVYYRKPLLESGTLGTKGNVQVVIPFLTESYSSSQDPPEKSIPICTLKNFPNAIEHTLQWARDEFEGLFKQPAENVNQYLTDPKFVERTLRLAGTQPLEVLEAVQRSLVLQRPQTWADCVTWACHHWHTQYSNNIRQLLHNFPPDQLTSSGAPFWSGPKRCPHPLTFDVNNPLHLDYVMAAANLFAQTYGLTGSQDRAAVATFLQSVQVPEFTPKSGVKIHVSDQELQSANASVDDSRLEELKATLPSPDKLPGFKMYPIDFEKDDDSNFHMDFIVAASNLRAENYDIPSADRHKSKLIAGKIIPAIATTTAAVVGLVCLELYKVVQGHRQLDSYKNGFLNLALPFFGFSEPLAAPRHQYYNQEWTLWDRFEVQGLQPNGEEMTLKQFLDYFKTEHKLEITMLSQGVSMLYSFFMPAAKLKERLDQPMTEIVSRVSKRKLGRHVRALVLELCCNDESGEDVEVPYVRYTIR
The experiment in a line: in vitro oxidation and non-reducing immunoblot of a disulfide-linked complex.

B1: recombinant Rad6 (enzyme)
chain: MSTPARRRLMRDFKRMKEDAPPGVSASPLPDNVMVWNAMIIGPADTPYEDGTFRLLLEFDEEYPNKPPHVKFLSEMFHPNVYANGEICLDILQNRWTPTYDVASILTSIQSLFNDPNPASPANVEAATLFKDHKSQYVKRVKETVEKSWEDDMDDMDDDDDDDDDDDDDEAD
B1: the binding result is reported as “binds”.
